Measurements reported in paper PMC7241686.

Target: HA trimer from A/New Caledonia/20/1999 (H1N1), soluble trimerized HA ectodomain (Influenza A virus A/New Caledonia/20/1999 (H1N1))
Experiment: SEC

HA trimer from A/New Caledonia/20/1999 (H1N1), soluble trimerized HA ectodomain (domain or fragment)
stoichiometry N: 3
